Measurements taken from IntAct's records for PubMed 17919502.

B1: Copper-transporting ATPase 2 (Homo sapiens), P35670 (parent)
chain: MPEQERQITAREGASRKILSKLSLPTRAWEPAMKKSFAFDNVGYEGGLDGLGPSSQVATSTVRILGMTCQSCVKSIEDRISNLKGIISMKVSLEQGSATVKYVPSVVCLQQVCHQIGDMGFEASIAEGKAASWPSRSLPAQEAVVKLRVEGMTCQSCVSSIEGKVRKLQGVVRVKVSLSNQEAVITYQPYLIQPEDLRDHVNDMGFEAAIKSKVAPLSLGPIDIERLQSTNPKRPLSSANQNFNNSETLGHQGSHVVTLQLRIDGMHCKSCVLNIEENIGQLLGVQSIQVSLENKTAQVKYDPSCTSPVALQRAIEALPPGNFKVSLPDGAEGSGTDHRSSSSHSPGSPPRNQVQGTCSTTLIAIAGMTCASCVHSIEGMISQLEGVQQISVSLAEGTATVLYNPSVISPEELRAAIEDMGFEASVVSESCSTNPLGNHSAGNSMVQTTDGTPTSVQEVAPHTGRLPANHAPDILAKSPQSTRAVAPQKCFLQIKGMTCASCVSNIERNLQKEAGVLSVLVALMAGKAEIKYDPEVIQPLEIAQFIQDLGFEAAVMEDYAGSDGNIELTITGMTCASCVHNIESKLTRTNGITYASVALATSKALVKFDPEIIGPRDIIKIIEEIGFHASLAQRNPNAHHLDHKMEIKQWKKSFLCSLVFGIPVMALMIYMLIPSNEPHQSMVLDHNIIPGLSILNLIFFILCTFVQLLGGWYFYVQAYKSLRHRSANMDVLIVLATSIAYVYSLVILVVAVAEKAERSPVTFFDTPPMLFVFIALGRWLEHLAKSKTSEALAKLMSLQATEATVVTLGEDNLIIREEQVPMELVQRGDIVKVVPGGKFPVDGKVLEGNTMADESLITGEAMPVTKKPGSTVIAGSINAHGSVLIKATHVGNDTTLAQIVKLVEEAQMSKAPIQQLADRFSGYFVPFIIIMSTLTLVVWIVIGFIDFGVVQRYFPNPNKHISQTEVIIRFAFQTSITVLCIACPCSLGLATPTAVMVGTGVAAQNGILIKGGKPLEMAHKIKTVMFDKTGTITHGVPRVMRVLLLGDVATLPLRKVLAVVGTAEASSEHPLGVAVTKYCKEELGTETLGYCTDFQAVPGCGIGCKVSNVEGILAHSERPLSAPASHLNEAGSLPAEKDAVPQTFSVLIGNREWLRRNGLTISSDVSDAMTDHEMKGQTAILVAIDGVLCGMIAIADAVKQEAALAVHTLQSMGVDVVLITGDNRKTARAIATQVGINKVFAEVLPSHKVAKVQELQNKGKKVAMVGDGVNDSPALAQADMGVAIGTGTDVAIEAADVVLIRNDLLDVVASIHLSKRTVRRIRINLVLALIYNLVGIPIAAGVFMPIGIVLQPWMGSAAMAASSVSVVLSSLQLKCYKKPDLERYEAQAHGHMKPLTASQVSVHIGMDDRWRDSPRATPWDQVSYVSQVSLSSLTSDKPSRHSAAADDDGDKWSLLLNGRDEEQYI

Variants of: B1
Details: with comd1_human COMMD1, Q8N668
Chain of comd1_human COMMD1, Q8N668 (Q8N668 whole entry): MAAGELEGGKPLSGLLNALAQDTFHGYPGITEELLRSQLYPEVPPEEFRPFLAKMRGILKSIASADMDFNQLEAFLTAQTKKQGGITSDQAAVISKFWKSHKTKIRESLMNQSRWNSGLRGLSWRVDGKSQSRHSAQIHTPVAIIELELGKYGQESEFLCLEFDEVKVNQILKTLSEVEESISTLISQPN

| Variant | effect of a mutation on the interaction |
| --- | --- |
| N41S | increasing interaction strength |
| G85V | increasing interaction strength |
| G170V | increasing interaction strength |
| G284V | increasing interaction strength |
| G386V | increasing interaction strength |
| A486S | increasing interaction strength |
| L492S | with no effect |
| G515V | increasing interaction strength |
| Y532H | increasing interaction strength |
| E541K | increasing interaction strength |
| G591D | increasing interaction strength |
| A604P | decreasing interaction strength |
| R616Q | increasing interaction strength |
| R616W | increasing interaction strength |
| G626A | decreasing interaction strength |
| L641S | with no effect |
| D642H | decreasing interaction strength |
| M645R | decreasing interaction strength |
